Measured values from patent US20200072853A1.

Legend:
[1] = biological target: human proBNP(1-108), recombinant protein produced in E. coli (non-glycosylated) (human) (UniProt P16860); test: sandwich ELISA; capture hinge 76; proBNP(1-108) 1,250 pg/ml; detection mAb-peroxidase 0.5 ug/ml
[2] = biological target: human proBNP(1-108), recombinant protein produced in E. coli (non-glycosylated) (human) (UniProt P16860); test: sandwich ELISA; capture hinge 76; proBNP(1-108) 0 pg/ml (blank); detection mAb-peroxidase 0.5 ug/ml
[3] = biological target: human BNP(1-32) (human); test: sandwich ELISA; capture L21016; BNP(1-32) 78 pg/ml; detection mAb 0.5 ug/ml
human BNP(1-32) (human), sequence (peptide, as listed by the source): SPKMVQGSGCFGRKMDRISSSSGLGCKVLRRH

[4] = biological target: human proBNP(1-108), recombinant protein produced in E. coli (non-glycosylated) (human) (UniProt P16860); test: sandwich ELISA; capture hinge 76; proBNP(1-108) 156.25 pg/ml; detection mAb-peroxidase 0.5 ug/ml
[5] = biological target: human proBNP(1-108), recombinant protein produced in E. coli (non-glycosylated) (human) (UniProt P16860); test: sandwich ELISA; capture hinge 76; proBNP(1-108) 10,000 pg/ml; detection mAb-peroxidase 0.5 ug/ml
[6] = biological target: human BNP(1-32) (human); test: sandwich ELISA; capture L21016; BNP(1-32) 2,500 pg/ml; detection mAb 0.5 ug/ml
[7] = biological target: human proBNP(1-108), recombinant protein produced in E. coli (non-glycosylated) (human) (UniProt P16860); test: sandwich ELISA; capture hinge 76; proBNP(1-108) 20 pg/ml; detection mAb-peroxidase 0.5 ug/ml
[8] = biological target: human BNP(1-32) (human); test: sandwich ELISA; capture L21016; BNP(1-32) 312.5 pg/ml; detection mAb 0.5 ug/ml
[9] = biological target: human proBNP(1-108), recombinant protein produced in E. coli (non-glycosylated) (human) (UniProt P16860); test: sandwich ELISA; capture hinge 76; proBNP(1-108) 625 pg/ml; detection mAb-peroxidase 0.5 ug/ml
[10] = biological target: human proBNP(1-108), recombinant protein produced in E. coli (non-glycosylated) (human) (UniProt P16860); test: sandwich ELISA; capture hinge 76; proBNP(1-108) 2,500 pg/ml; detection mAb-peroxidase 0.5 ug/ml
[11] = biological target: human proBNP(1-108), recombinant protein produced in E. coli (non-glycosylated) (human) (UniProt P16860); test: sandwich ELISA; capture hinge 76; proBNP(1-108) 312.5 pg/ml; detection mAb-peroxidase 0.5 ug/ml
[12] = biological target: human BNP(1-32) (human); test: sandwich ELISA; capture L21016; BNP(1-32) 1,250 pg/ml; detection mAb 0.5 ug/ml
[13] = biological target: human BNP(1-32) (human); test: sandwich ELISA; capture L21016; BNP(1-32) 39 pg/ml; detection mAb 0.5 ug/ml
[14] = biological target: human BNP(1-32) (human); test: sandwich ELISA; capture L21016; BNP(1-32) 10,000 pg/ml; detection mAb 0.5 ug/ml
[15] = biological target: human BNP(1-32) (human); test: sandwich ELISA; capture L21016; BNP(1-32) 0 pg/ml (blank); detection mAb 0.5 ug/ml
[16] = biological target: human BNP(1-32) (human); test: sandwich ELISA; capture L21016; BNP(1-32) 156.25 pg/ml; detection mAb 0.5 ug/ml
[17] = biological target: human BNP(1-32) (human); test: sandwich ELISA; capture L21016; BNP(1-32) 5,000 pg/ml; detection mAb 0.5 ug/ml
[18] = biological target: human BNP(1-32) (human); test: sandwich ELISA; capture L21016; BNP(1-32) 625 pg/ml; detection mAb 0.5 ug/ml
[19] = biological target: human proBNP(1-108), recombinant protein produced in E. coli (non-glycosylated) (human) (UniProt P16860); test: sandwich ELISA; capture hinge 76; proBNP(1-108) 39 pg/ml; detection mAb-peroxidase 0.5 ug/ml
[20] = biological target: human BNP(1-32) (human); test: sandwich ELISA; capture L21016; BNP(1-32) 20 pg/ml; detection mAb 0.5 ug/ml
[21] = biological target: human proBNP(1-108), recombinant protein produced in E. coli (non-glycosylated) (human) (UniProt P16860); test: sandwich ELISA; capture hinge 76; proBNP(1-108) 78 pg/ml; detection mAb-peroxidase 0.5 ug/ml
[22] = biological target: human proBNP(1-108), recombinant protein produced in E. coli (non-glycosylated) (human) (UniProt P16860); test: sandwich ELISA; capture hinge 76; proBNP(1-108) 5,000 pg/ml; detection mAb-peroxidase 0.5 ug/ml

human proBNP(1-108), recombinant protein produced in E. coli (non-glycosylated) (human), sequence (P16860 27-134): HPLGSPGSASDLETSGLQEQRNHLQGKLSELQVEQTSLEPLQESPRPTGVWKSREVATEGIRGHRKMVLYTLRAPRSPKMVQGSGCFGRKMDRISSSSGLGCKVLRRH

| Substance | OD [1] | OD [2] | OD 490 nm [3] | OD [4] | OD [5] | OD 490 nm [6] | OD [7] | OD 490 nm [8] | OD [9] | OD [10] | OD [11] | OD 490 nm [12] | OD 490 nm [13] | OD 490 nm [14] | OD 490 nm [15] | OD 490 nm [16] | OD 490 nm [17] | OD 490 nm [18] | OD [19] | OD 490 nm [20] | other results |
| --- | --- | --- | --- | --- | --- | --- | --- | --- | --- | --- | --- | --- | --- | --- | --- | --- | --- | --- | --- | --- | --- |
| 26E2 monoclonal antibody (HyTest, Turku, Finland) | 0.024 OD | 0.024 OD | 0.055 OD | 0.027 OD | 0.158 OD | 0.035 OD | 0.028 OD | 0.027 OD | 0.024 OD | 0.031 OD | 0.028 OD | 0.031 OD | 0.032 OD | 0.048 OD | 0.022 OD | 0.032 OD | 0.041 OD | 0.029 OD | 0.028 OD | 0.034 OD | OD [21]: 0.033 OD; OD [22]: 0.041 OD |
| 24C5 monoclonal antibody (HyTest, Turku, Finland) | 0.068 OD | 0.044 OD | 0.052 OD | 0.055 OD | 0.22 OD | 0.067 OD | 0.052 OD | 0.063 OD | 0.07 OD | 0.069 OD | 0.035 OD | 0.056 OD | 0.055 OD | 0.077 OD | 0.071 OD | 0.071 OD | 0.068 OD | 0.059 OD | 0.056 OD | 0.068 OD | OD [21]: 0.056 OD; OD [22]: 0.117 OD |
